# In patent publication US20240207421A1, “NERVE TARGETING PEPTIDES AND METHODS OF USE” (ALUME BIOSCIENCES, INC., priority 2020, published 2024):
# Molecular target: T1, Human Myelin Basic Protein (Homo sapiens, UniProt P02686)
# Test: phage display, NGS count
# Conditions: not given
# Target sequence in this assay (P02686 135-304 limits assumed): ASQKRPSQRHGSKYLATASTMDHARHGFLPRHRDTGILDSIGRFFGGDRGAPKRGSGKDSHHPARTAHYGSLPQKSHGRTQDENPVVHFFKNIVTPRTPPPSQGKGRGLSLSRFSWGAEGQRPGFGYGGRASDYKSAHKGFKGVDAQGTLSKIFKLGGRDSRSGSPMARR
row,Count,Substance
1,6,AIPPRKL (peptide)
2,6,QGAYVRP (peptide)
3,9,HFYGPGP (peptide)
4,6,SRHLPPL (peptide)
5,7,ESPYPHS (peptide)
6,6,SNAHTLP (peptide)
7,6,ALRDTRV (peptide)
8,7,LTKSLNH (peptide)
9,7,NMYPRVT (peptide)
10,6,TRIPILL (peptide)
11,7,SYTLSRS (peptide)
12,6,HPWSHPN (peptide)
13,7,QGTLFDT (peptide)
14,7,SEPGTVR (peptide)
15,6,SEGLTLL (peptide)
16,8,FVLPNKN (peptide)
17,6,SLWTHRT (peptide)
18,7,AVRQTTM (peptide)
19,6,QKALPQT (peptide)
20,8,QNSYLSN (peptide)
21,6,ELKSLRF (peptide)
22,7,AAGQRSF (peptide)
23,6,SKPHASH (peptide)
24,6,YVNRVKQ (peptide)
25,6,INFPFAV (peptide)
26,6,HQMRTML (peptide)
27,9,HYSPNVM (peptide)
28,7,LFRRVTE (peptide)

row,Count,Substance
1,7,SGNLKKA (peptide)
2,9,SRPTRVP (peptide)
3,6,LMLPQLE (peptide)
4,8,MPSLKHQ (peptide)
5,7,HTGLRSL (peptide)
6,6,IGTRWHQ (peptide)
7,8,TPQVMLK (peptide)
8,6,VGTFWTR (peptide)
9,9,NFAQHMQ (peptide)
10,8,QQAHLQS (peptide)
11,7,NLLQGVM (peptide)
12,6,TIRVAHT (peptide)
13,7,TPLYLSS (peptide)
14,9,HPWLGNR (peptide)
15,6,TGPSSAV (peptide)
16,6,HRTHLHQ (peptide)
17,8,SWFESHN (peptide)
18,6,MNSPLAQ (peptide)
19,7,ASNTSKG (peptide)
20,6,WDLRHSK (peptide)
21,6,ARVPNPL (peptide)
22,6,QTSIMSG (peptide)
23,6,HAHWARL (peptide)
24,6,HSSATMS (peptide)
25,6,DVRIWTL (peptide)
26,7,NSSPHQI (peptide)
27,8,SPPRFIP (peptide)

# The remaining lines, values behind:
row,Substance,Count
1,FDLLARK (peptide),6
2,AGSLLSL (peptide),6
3,KNSIAPR (peptide),8
4,FSAGVGK (peptide),7
5,IPIPYRT (peptide),6
6,GQWWKML (peptide),6
7,NPTDTNK (peptide),8
8,KVHHLAR (peptide),6
9,SLWQTLR (peptide),6
10,GPITHAI (peptide),7
11,LELHQNV (peptide),6
12,SKLAGFP (peptide),6
13,MTNHGNA (peptide),7
14,TQMTMDS (peptide),10
15,WVPDRSL (peptide),6
16,SAVLMPP (peptide),6
17,YPYVPIY (peptide),6
18,HQPLFPR (peptide),6
19,ETHYKIA (peptide),6
20,DVVKDVI (peptide),7
21,NLTYLRF (peptide),6
22,GVAEVGL (peptide),6

row,Substance,Count
1,LPPQISR (peptide),8
2,SSFYVAY (peptide),6
3,VIRTAAM (peptide),6
4,MDLSLKP (peptide),10
5,FKLPWAS (peptide),7
6,SPKPDIP (peptide),6
7,YPTYLSY (peptide),6
8,HPDTLPQ (peptide),7
9,IPYSQMP (peptide),6
10,TTTQGHP (peptide),6
11,TLLTALT (peptide),7
12,SGPFPLV (peptide),6
13,QPIDSTS (peptide),7
14,YSSRLND (peptide),6
15,IILPSAQ (peptide),8
16,YLPPPLP (peptide),7
17,TPVRLNT (peptide),6
18,KMSLAPP (peptide),6
19,LITHPQL (peptide),6
20,RGHPSQL (peptide),6
21,SYVTVFR (peptide),6
22,TSPPLAH (peptide),8

row,Substance,Count
1,WPDLRIL (peptide),7
2,AQLGAFR (peptide),6
3,YTASPRW (peptide),6
4,FQLSYET (peptide),6
5,HFLRPSD (peptide),7
6,RTTDWWT (peptide),6
7,SLKTTNP (peptide),6
8,NLKLWTR (peptide),7
9,TGNLRLY (peptide),9
10,THKHMMT (peptide),6
11,HFTFFPI (peptide),6
12,KYRHGAE (peptide),7
13,WDLPQNR (peptide),6
14,FLNQAPT (peptide),7
15,NTPKVLA (peptide),10
16,AKFTMWV (peptide),6
17,GEPALVT (peptide),6
18,RSRKHRP (peptide),6
19,AISWKGF (peptide),6
20,SSMRYNS (peptide),6
21,HSGPLLP (peptide),6
22,SIQTSAM (peptide),6

row,Substance,Count
1,ANLSRSV (peptide),9
2,SSGMLSK (peptide),7
3,SVEYGQL (peptide),9
4,SNAERWR (peptide),9
5,GPRVTPH (peptide),6
6,WTYHPTT (peptide),6
7,HPTGTPT (peptide),7
8,VSFTLEP (peptide),7
9,TPVLWLP (peptide),6
10,SLDHLRL (peptide),6
11,VAHQRVS (peptide),8
12,TSRLVST (peptide),8
13,MQRLGAD (peptide),6
14,KGQPLFR (peptide),7
15,VPTLRIP (peptide),8
16,FSARTNT (peptide),9
17,ESKSPRE (peptide),6
18,WSPRWPS (peptide),7
19,TPGRATL (peptide),6

# Molecular target: T1, Human Myelin Basic Protein
# Test: Phage display library screening (Example 2, Python script analysis), binding to Human Myelin Basic Protein
# Set-up: Enzo 200-606-M001 from human; purchased Enzo 200-606-M001; host or cells: human brain (tissue-derived)
# Conditions: R3 Myelin Basic Protein; combined unique sequence count, Python/R script analysis
# Experimental: Phage display library screens were used to identify peptides that bind to target proteins (including specific laminin trimers) that are expressed in human nerves, as described in Table 3. These screens were also carried out to identify peptides that could bind selectively to nerves versus muscle. Such peptides could therefore be useful for systemic in-vivo labeling of nerves during fluorescence assisted surgery. Specifically, m 13 phage libraries expressing 7 or 12 random amino acid peptides, or a cyclic peptide CX7C, on the N-terminus of the minor coat protein pIII (New England Biolabs; NEB) were processed through multiple rounds of selection for binding to target proteins expressed in nerves, or to excised human nerves, nerve extracts, or muscle, as described further below.
# For screening against the specified target proteins in Table 1, including LN211, LN411, LN421, and LN521, the phage library was processed by up to 4 binding and wash cycles. For selection, phage libraries were incubated for up to 24 hours at 4° C. in 96 well plates that had been coated with one of the target proteins. Plates were then washed with PBS and phage were eluted using 0.2M glycine pH 2.0. Phage supernatants where then neutralized with Tris pH 9.0 prior to plating on TGI bacteria and LB agar plates. Colonies were counted to determine titer followed by DNA preparation of pools of phage and NextGen sequencing. After rounds of selection, phage were pooled and amplified for iterative selection. Phage that were bound at each round were sequenced. NextGen sequencing of pools after 2, 3 and 4 rounds of selection was used to isolate candidate sequences that were analyzed further to identify those that specifically bound each unique target protein.
# Python Script Analysis: For all NEB sequence datasets, a python script was used to translate, trim, and filter the peptide sequences. The script translated the nucleotide sequences, translating amber codons as glutamine in peptide sequences, and then trimmed the end sequences that come from the vector. Secondly, the script combined the unique counts of trimmed peptides with identical sequences. […] Another python script was used to group peptides from different assays according to protein target (Myelin Protein Zero, Myelin Proteolipid Protein, Myelin Basic Protein, and Nidogen-2) and also combine the unique sequence counts for each peptide. An R script was written to merge the peptide sequences from different data files and determine peptides specific for each protein target but absent from different protein binding datasets. Peptide sequences were ranked by unique sequence count.
# Target sequence in this assay (P02686 134-304): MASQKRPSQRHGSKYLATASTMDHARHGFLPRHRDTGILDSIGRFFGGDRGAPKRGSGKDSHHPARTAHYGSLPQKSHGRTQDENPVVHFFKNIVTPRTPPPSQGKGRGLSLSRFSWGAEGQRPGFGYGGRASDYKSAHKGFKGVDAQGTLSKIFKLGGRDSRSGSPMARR
row,Substance,Count
1,SVEYGQL (R3 Myelin Basic Protein-binding peptide),9
2,AVRQTTM (R3 Myelin Basic Protein-binding peptide),7
3,HMAGVNQ (R3 Myelin Basic Protein-binding peptide),7
4,SRHLPPL (R3 Myelin Basic Protein-binding peptide),6
5,KMSLAPP (R3 Myelin Basic Protein-binding peptide),6
6,SWFESHN (R3 Myelin Basic Protein-binding peptide),8
7,WSPRWPS (R3 Myelin Basic Protein-binding peptide),7
8,LVPPVNH (R3 Myelin Basic Protein-binding peptide),6
9,RGHPSQL (R3 Myelin Basic Protein-binding peptide),6
10,NLLQGVM (R3 Myelin Basic Protein-binding peptide),7
11,CEDSDKSVC (R3 Myelin Basic Protein-binding peptide),7
12,NGPNSLQ (R3 Myelin Basic Protein-binding peptide),6
13,QNSYLSN (R3 Myelin Basic Protein-binding peptide),8
14,TRIPILL (R3 Myelin Basic Protein-binding peptide),6
15,QYWDILG (R3 Myelin Basic Protein-binding peptide),6
